Results on one molecule are retold here after US20120244144A1 (University of Texas, published 2012).

Numbering of substitutions follows the chain as printed.

The target in assay [1] is T1, PTx-S1-220 T158A (Bordetella pertussis strain Tohama I, UniProt P04977 36-255, T158A).
T1 sequence: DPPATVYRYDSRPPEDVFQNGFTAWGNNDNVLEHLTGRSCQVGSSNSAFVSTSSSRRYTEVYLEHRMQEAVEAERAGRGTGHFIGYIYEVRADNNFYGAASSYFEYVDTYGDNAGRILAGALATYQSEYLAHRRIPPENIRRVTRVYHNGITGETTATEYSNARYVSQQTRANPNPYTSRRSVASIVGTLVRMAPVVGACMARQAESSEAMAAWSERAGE
As to the kind of experiment: SPR, mAb 1B7 immobilised ~1000 RU. (In SPR one partner is held on a chip, and binding of the other changes the refractive index at the surface.)

Assay [2] addresses T2, PTx-S1-220 N176A (Bordetella pertussis strain Tohama I, UniProt P04977 36-255).
T2 chain: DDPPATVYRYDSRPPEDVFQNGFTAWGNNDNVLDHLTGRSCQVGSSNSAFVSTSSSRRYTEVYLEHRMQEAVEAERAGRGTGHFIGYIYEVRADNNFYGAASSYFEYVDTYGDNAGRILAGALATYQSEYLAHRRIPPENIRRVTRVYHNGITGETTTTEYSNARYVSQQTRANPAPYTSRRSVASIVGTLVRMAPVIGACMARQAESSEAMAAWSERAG
Kind of assay: SPR, mAb 1B7 immobilised ~1000 RU.

Assay [3] addresses T3, PTx-S1 9K/129G (1-220) (Bordetella pertussis, UniProt P04977 36-255, R9K; E129G).
T3 construct: also called R9K, E129G variant
T3 sequence: T1 sequence with R8K, E128G, A157T
As to the kind of experiment: SPR BIAcore 3000, mAb 1B7 immobilised ~1000 RU.

In assay [4] the target is T4, PTx-S1A (1-220) (Bordetella pertussis, UniProt P04977 36-255, M194I).
T4 sequence: T1 sequence with A157T, M193I
Kind of assay: SPR BIAcore 3000, mAb 1B7 immobilised ~1000 RU.

In assay [5] the target is T5, PTx-S1D (1-220) (Bordetella pertussis, UniProt P04977 35-254).
T5 chain: T2 chain with D34E, A176N, I198V
Kind of assay: SPR BIAcore 3000, mAb 1B7 immobilised ~1000 RU.

In assay [6] the target is PTx-S1-220, truncated recombinant S1 subunit (residues 1-220) (Bordetella pertussis strain Tohama I), P04977. Kind of assay: SPR, mAb 1B7 immobilised ~1000 RU. As to conditions: remark: other sources report otherwise.

B1: monoclonal antibody 1B7 (antibody)
chain: DIQMTQSPALMSASPGEKVTMTCSASSSVSFMYWYQQKPRSSPKPWIYLTSNLPSGVPARFSGSGSGTSYSLTISSMEAEDAATYYCQQWSSHPPTFGSGTKLEIKRGGGGSGGGGSGGGGSGGGGSEVQLQQSGSELVRPGASVKLSCKASGYKFTSYWMHWVKQRPGQGLEWIGNIFPGSGSTNYDEKFNSKATLTVDTSSNTAYMQLSSLTSEDSAVYYCTRWLSGAYFDYWGQGTTLTVSSASGA
notes: also called mAb 1B7; 1B7 mAb
As a reminder, the koff is the first-order rate constant of dissociation. Consider B1, for which the koff in assay [1] is 0.0013 s⁻¹; in assay [2] it was 0.0011 s⁻¹; in assay [3] it was 0.0016 s⁻¹; in assay [4], 0.00071 s⁻¹; in assay [5] it was 0.00095 s⁻¹; in assay [6] it was 0.0014 s⁻¹.
